No end group written: not given here.
T1: HGPRBMY11 polypeptide (human G-protein coupled receptor, SEQ ID NO:2) (human, UniProt Q9NS75 17-346)
T1 construct: 330 amino acids; also called GPCR74; GPCR 81
T1 sequence: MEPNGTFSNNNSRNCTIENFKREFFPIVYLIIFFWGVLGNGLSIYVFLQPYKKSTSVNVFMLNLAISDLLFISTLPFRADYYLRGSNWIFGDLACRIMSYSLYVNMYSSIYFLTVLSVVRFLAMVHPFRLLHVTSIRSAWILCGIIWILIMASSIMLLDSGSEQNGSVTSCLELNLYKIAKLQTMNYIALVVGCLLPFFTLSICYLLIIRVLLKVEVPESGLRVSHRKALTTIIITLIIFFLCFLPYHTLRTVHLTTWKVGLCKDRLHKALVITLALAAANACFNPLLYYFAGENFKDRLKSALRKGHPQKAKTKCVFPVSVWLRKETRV

B1: LFASSDWSSFPVLVF (SEQ ID NO:81) (peptide)
peptide: LFASSDWSSFPVLVF
modifications: also: displayed fused to phage coat protein, not free peptide
notes: In the assay it stood fused to the phage coat protein, not as a free peptide; The synthesis of free N-acetyl peptide amides is described only as a method; also called Peptide Modulator of HGPRBMY11
B2: THGFGHRVWSVPLRS (SEQ ID NO:96) (peptide)
peptide: THGFGHRVWSVPLRS
notes: In the assay it stood fused to the phage coat protein; also called Peptide Modulator of HGPRBMY11

Molecular target: T1, HGPRBMY11 polypeptide (human G-protein …)
Assay: phage display panning of M13KE peptide libraries on CHO-K1 cells transfected with HGPRBMY11, after preadsorption on integrin and parental cells; bound phage eluted and sequenced
Experimental: On the day of panning, growth medium was discarded and cells were washed with 10 ml PBS by allowing the buffer to flow over the cells. The PBS was removed and 10 ml Tris-EDTA detaching buffer (Gibco Cat. # 13150-016; no trypsin) was added for 2 min. Plates were tapped and/or pipetted up and down to detach cells. This was done quickly to minimize the exposure of the cells to this reagent. Cells were pelleted by centrifugation at 3 K, and then washed with 20 ml PBS. Cells were resuspended cells in PBS with 2% milk blocking agent plus protease inhibitor (EDTA-free; Roche Cat. # 1 873 580). For each library, cell suspensions of ˜500 ul were used. Cells were blocked for 30-60 min with gentle rocking at room temperature. The integrin-coated wells were washed 3× in PBST, then blocked with 2% BSA in PBS for 30 min or more. To preadsorb against integrin, input phage was added to the integrin-coated wells, and incubated for 30 min or more.
At this stage, the blocked parental cells were divided into the required number of aliquots (500 ul aliquot/library). The phage supernatants were added from the integrin-preadsorption step. Preadsorption against the parental cells was carried out for 30 min or more with gentle rocking. […]
Standard procedures were used. […] Colonies were grown in liquid medium and analyzed by standard sequencing procedures.

| Binder | binding result |
| --- | --- |
| B1 | binds |
| B2 | binds |

Reference: patent publication US20060229272A1 (published 2006)
